Test system: PTRI20 meganuclease (engineered, pCLS17038) (artificial)
Assay: cell_activity
Settings: P. tricornutum; 6.9% with SCTREX2 (p124); HGT up to 0.197% with donor (p171); empty vector 0

Sequence: GTTTTACGTTGTACGACGTCTAGC (double strand) [PTRI20 target]
- activity (% mutagenesis): 0.032

From patent publication US20160272980
